The text below walks through data of a protein production outcome set (Wang et al. 2014).
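Further: failed if final PepcDB status was selected cloned or expressed and not failed if soluble or beyond.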

The data set in a line: label from the status in PepcDB records.
With “SSHQPLSCLTEKEDSPSESTGNGPPHLAHPNLDTFTPEELLQQMKELLTENHQLKEAMKLNNQAMKGRFEELSAWTEKQKEERQFFEIQSKEAKERLMALSHENEKLKEELGKLKGKSERSSEDPTDDSRLPRAEAEQEKDQLRTQVVRLQAEKADLLGIVSELQLKLNSSGSSEDSFVEIRMAEGEAEGSVKEIKHSPGPTRTVSTGTSRSADGAKNYFEHEELTVSQLLLCLREGNQKVERLEVALKEAKERVSDFEKKTSNRSEIETQTEGSTEKENDEEKGPETVGSEVEALNLQVTSLFKELQEAHTKLSEAELMKKRLQEKCQALERKNSAIPSELNEKQELVYTNKKLELQVESMLSEIKMEQAKTEDEKSKLTVLQMTHNKLLQEHNNALKTIEELTRKESEKVDRAVLKELSEKLELAEKALASKQLQMDEMKQTIAKQEEDLETMTILRAQMEVYCSDFHAERAAREKIHEEKEQLALQLAVLLKENDAFEDGGRQSLMEMQSRHGARTSDSDQQAYLVQRGAEDRDWRQQRNIPIHSCPKCGEVLPDIDTLQIHVMDCII”, the protein production result is listed as “failed”.
With “SSSDVVTLTVGATPSPHAKILTYINDNLAADAGIKLDIVEYTDYVQPNTALNDGDLDANFYQTVPYLENAEKQFGYNFEAGEGIHLEPLGVFSNKHKSLDELPDGGTIGIISDTANQSRALELLATQGLVSIPEGDGDVNINTVTKLKNFDFREVEGPQLVRSLDDFDYAVINGNFAQEGGKTISGDALVVESPVDNPAVNVLVWKGDSKKVDAIAKLEKLLHSDEVKQYIEKTWSDGSVIPAF”, the protein production entry was “not failed”.
As for “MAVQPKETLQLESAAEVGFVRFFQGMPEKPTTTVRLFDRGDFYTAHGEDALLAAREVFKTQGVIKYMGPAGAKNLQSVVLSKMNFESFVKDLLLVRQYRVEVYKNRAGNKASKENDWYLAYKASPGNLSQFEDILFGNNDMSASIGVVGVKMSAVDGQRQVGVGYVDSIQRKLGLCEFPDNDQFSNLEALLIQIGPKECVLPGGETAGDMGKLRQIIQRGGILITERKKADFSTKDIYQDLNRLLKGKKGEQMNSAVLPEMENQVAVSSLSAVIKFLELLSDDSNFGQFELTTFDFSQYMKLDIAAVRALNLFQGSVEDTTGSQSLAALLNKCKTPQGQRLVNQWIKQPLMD”, the entry is “failed”; as for “MATGGLAIIQSMKHKLPPSERKLADYILAHPHKAIESTVNEISALANSSDAAVIRLCKSLGLKGFQDLKMRVAGDLAKPTFQGYRDIVPHEPLPSISEKTAGNAIQAIQDTSDLMDYKELERAVSLLLKAHTVHFIGLGASGIVAKDAQQKWLRIHKQATAFTDTHLVASLIANADKDDIVFAISFSGETQEIVELFAMAKEKGITTISLTQFSQTSVSALADVPLYTAHSNEALIRSAATSSRLAQLFIIDVLFLGMAAEQYETTTGYIDKTRAAIQSMRIK”, “not failed”; as for “QRLSNSIINSLASGEGVVEALRTMKNDGVISGMFKLEQGKFNRSIENLVRTEYSHFAVEGVRKSLKDIGVKQTQSWSAEDERVCSICGGRHGKEIKDDWHPPYHGRCRCTEI”, “failed”.
As for “MSDIHKKIKKKQFAPLYLLYGTEAFFINETIKLITTEALEEEDREFNVVTYDLEEAYLEDVVEDARTLPFFGERKVLLIKSPLFLTSQKEKLEQNIKILEEYIGEPSPFSILVFVAPYEKLDERKKITKLLKKTADIVEANAMQVQDVQKWIVARAEEGHVHIDNAAVSLLLELVGSNVTMLAKEMDKLTLYVGMGGEITPKLVAELVPKSVEQNVFALTEKVVKKDIAGAMQILDGLFTQQEEPIKLLALLVSQFRLLHQVKELQQRGYGQNQIASHIGVHPYRVKLAMNQTKFFSFEELKKVIIELAEADYSMKTGKMDKKLVLEFFLMRLNHM”, the entry is “failed”; as for “MKWILAVGLLSCSVAMAQQQSDILSVSASANAENAALAFDRNVKTMWTIPSQALKAEQWLMFTIQQPGDVCELDLQMQGINKNELKEVLDIFVTYDPMNLGTPVNYRIEGSDKQMKVKFTPKYGAHVKLNFKSGKLDKPFSLKEISVLVAEKVLTDSQGKVTDRRYMDASLPVEERVESLLAVMTPEDKMELIREGWGIPGIPHLYVPPITKVEAVHGFSYGSGATIFPQALAMGATWNRKLTEEVAMVIGDETVAANTKQAWSPVLDVAQDARWGRCEETFGEDPVLVSQIGGAWIKGYQSRGLFTTPKHFGGHGAPLGGRDSHDIGLSEREMREIHLVPFRHAIRNYDCQSLMMAYSDYMGVPVAKSKELLQQILRQEWGFNGFIVSDCGAIGNLTARKHYTAKDKIEAANQALAAGIATNCGDTYNNKEVIQAAKDGRINMEDLDNVCRTMLGTMFRNELFEKNPCKPLDWKKIYPGWNSDSHKEMARQAARESIVMLENKDNLLPLSKTLRTIAVLGPGADDLQPGDYTPKLLPGQLKSVLTGIKGAVGKQTKVLYEQGCDFTNPDETNIPKAVKAASQSDVVIMVLGDCSTSEATNDVRKTCGENNDWATLILPGKQQELLEAVCATGKPVILILQAGRPYDILKASEMCKAILVNWLPGQEGGPAMADVLFGDYNPAGRLPMTFPRHVGQLPLYYNFKTSGRRYEYVDMEYYPLYRFGFGLSYTSFEYSNLKIQEKANGNVEVQATVKNVGSRAGDEVAQLYVTDMYASVKTRVMELKDFARIHLQPGESKTVSFEMTPYDISLLNDRMDRVVEKGEFKIMVGGMSPDYVAKNEIKHSVGYSDNKKGVTGMLNYTHEFGANFDLAVSKVEENLVKNQKTVWVSVKNTGTLMDIGKVEMFVDGKKVGDAVHYELGAGEEKLIPFKLAKENKQPVAFTTKYKMVSM”, “failed”.
As for “HTETGNIWTHLLGFVLFLFLGILTMLRPNMYFMAPLQEKVVFGMFFLGAVLCLSFSWLFHTVYCHSEKVSRTFSKLDYSGIALLIMGSFVPWLYYSFYCSPQPRLIYLSIVCVLGISAIIVAQWDRFATPKHRQTRAGVFLGLGLSGVVPTMHFTIAEGFVKATTVGQMGWFFLMAVMYITGAGLYAARIPERFFPGKFDIWFQSHQIFHVLVVAAAFVHFYGVSNLQEFRYGLEGGCTDDTLL”, the entry is “failed”.
As for “MDKKPSILIFIVAYNAESTIENVLMRIPADLLDDFDAEVLVIDDQSSDDTVLRCAETIQSGKIRFKTNVLVNPENQGYGGNQKVGYQYAIEHDFDCVALLHGDGQYAPEYLRDLITPVTKGEAEAVFGSRMMTPFGALKGGMPAYKFVGNKILTLFQNIMLKTSLSEFHSGYRAYSVKALKQIPFHLNTPDFHFDTEIIIQLILWGFRIAERPIPTYYGDEICYVNGLKYALDVVITTTKARMQRLGLFHECKYEVIHPHNSNGYPEAKLSIKSPSGNRILEHHHHHH”, the protein production entry is listed as “failed”.
In the case of “MRYAVVLYPCSSFHHESVRPSRFPAPRRHPLLHRLPLAVARRLAGPGTADHFRERAGRGGAASRQRRRVPRRGRRRAAVGPQGGRRLSRAENPQAAAARPHRAGQGAGAQRPSLSAAMNAPQRKIIHVDCDCFYAAIEMRDDPSLRDVPLAVGGRPETRGVVATCNYIARRYGVHSAMSSARALRLCPELLIVPPDMARYRLASQQIMAIYQRYTEVIEPLSLDEAYLDVTGQPHERGSATLMAEAIRRQIRDEVGITASAGIAPNKFLAKVASDWNKPDGQYLIRPRDIDAFVAVLPVEKIHGVGRVTAERLHRLGIRSCGDLRRWSPADLFRHFGSFGERLLALAHGRDERPVSTDRSRKTISVEETYAQDLPDLASCLSKLPELVDRLQARLARSGSPAFKGLSVKLKFDDFSQTTVEQPGYALSMAAFGQLLRAGHARGARPARLLGVGVKLADDFDLPRQLRLFGRDGRPLPDSAPPAEAPPGGPEADSAA” it was “failed”; in that of “HITLNYLSKTLGMHQTINVILPEDKSYFDTNENAKPLKTMLLLHGLSSDTSSYMRYTSIERYANTHQLAVVMPNADHSFYSNMAYGHSYYDYILEVYDYVHQILPLSKKREDNFIAGHSMGGYGAIKFALTQSYRFSKAAMLSAPYDVSMIGQYQWYDFTPEAIVGNTQHVAGTSFDPYYLVEQAIDNGQALPQLYITCGTEDELYQGNIDFVNYLDEKGIPYQFKKAPGNHDYAFWDKAIEDVIDRF”, “failed”; in that of “AADKRIDGNGNPETREIKISDYDEITFVGSADFEYEQSDKAPYLSVTIDENLFDYLVTEVEGGTLKIYPKSIKKGFNNNSYDLRPTVYKIKSNSKELKELNTVGSGSFIISKPTKVNRMEINMAGSGNVELRGPVKGYKLECNMAGSGNIIAKDIQLDNLSCSLASSGEIEVIGTVDRASFNVAGSGEIKAFDCQARKAECNIASSGEISVYATQILDANIVGSGEIHYKGDPEISKSIMGSGSINKVK”, “not failed”.
“MNIKIVFYVLGGLLRLLGLLMIVPLGVAYYYGESLTPFLVSIVITVLTGLILLSYKTDEDWMRKEGFAIVALGWLAVAVFGAIPFMLDGISPLNSLFEAMSAFTTTGSTILTDIESHPKGILFWRSMMQWLGGMGIIVLFIAVLPKFGVAGRQLFRAEAPGPTEDKLKPRIRETAKILWMVYFVISFAEVVALLLAGLSLYDAITHTFTTMACGGFSPYGTSIEAFRSPLVEYIITFFMFVSGANFALHYRAIYVDKDFLLKDDEFRFYTALTLAATGLLTLLLYRDINTGFFDSFRLAIFQVVSIMTTTGFATADFNFWSDSAKMVLLLIMFVGGCAGSTGGGIKVVRILMLLRHGRVELFKSLHPRAIRGVKFNNKNVPDEVINSIFSFVVIYLFIFMSSALILAVLGMDIITSTTASIATLGNIGPGLNVVGPMGTFDPIPPLGKLILIANMWIGRLEVYTVIVLFTPEFWNK”: the protein production entry is on record as “failed”.
In the case of “MIEVAEIIAREIRRGKIVEIGVGFYLEVAKRLRESGIDILVVDINEKAINYARKQGIKGVVDDIFNPTLGIYKDAKAIYSIRPAPEMMKPLLDLARKLKIPLYIVPLTGDRTPNGMKLINYKGIPIYKWEP” it was “not failed”; in that of “MLKSQEIRQKAPELDSLRLGSGWKSEELNKAQIIIESSFGHSHPGSAHLDTLVDEAFKSIDDNGGRGAKYFVTDICDGETQGHDGMNYSLASRDIMTNLMEIHVQATPFDAGIFIASCDKAVPAHLMAIARLDMPSILVPGGIMNAGPNMLTLEQIGTYNAQYERGEITKEQYEHYKQNACPSCGACSFMGTASTMQVMSEALGIALPGTALIPVTSKELKLAAKNAGKQILKLIELNIKPSEIMTKKAFENAIMVHAAIAGSSNCLLHIPAIAHELGMDIEPELFDEIHKKIPYILNIRPSGFYPGSYFWNAGGVPAIMEEIKEFLHLDVMTVTGKTLGENLEDLKNSGYYEEHDKLITSLGIKKEDVIRTKENPIQSQGAIAILKGNLAPGGAVVKHSAISKKLMQVVLKARVFNCEEDAIKSVLTKNIKPGDAVFVRYEGPKGSGMPEMFYTTEAIASDHELVDSTALITDGRFSGATRGPAIGHVSPEASEGGPIAFVQEGDLIKIDIPARKLDIIGTNGIEKSEKEIENILKERSQNWVKPAPRYTKGILGLYTRCASSPMKGGYME”, “failed”.
For the sequence “MSSNPTSSVREFEYKAEMKQLLNLIVHSLYTHPEIFLRELISNASDALGKARFRMLSSDEGLDKSGDLKITITVDKESGSFVIEDTGIGMSEEELISNLGTVASSGTLGFMEALKEQQKEGQRLDANLIGQFGVGFYSVFMVTDEVTVETKSIESGLQGWRWKSSGQGSYTIEPVEREARGTRISFILKEEFREFAQEYRVEQIIKKYSNFVEYPIYIGSRQINSMTALWQRPKSELKQEEVNEFYKFIANDFKDPLDYLHVSVEGAVSFKALLFIPSEAPMELLYNQGALEKRGPQLYVKKVLIQHECRDLLPEYLRFVSGVVDTEDLPLNVSRELVQASPVMAKIKQILTTKLLGWFDTIAKEEPEKFRAFYKAFGTILKIGLNTDFTNRDKLIDLLRFETTKTVEGEYVTLKEYVGRMAEGQTEIYYHSGSSRAQMLAHPNLEYFRKRDIEVLLLSDPVDVFVIPSIFEYDKKPLKSIEKAEIDMSTVEPEGERLSAEGTVGVISLFKEVLGERVADVVESRRLVSSPVTLVSGKDALDSQFEKMMKMMNKDADMPSTKKILEINTAHPIIRNLAGKHAVGLSTDPVVRAAVTQLFESALLLEGDLESVADYVSRMNELVEAATRS”, the protein production entry is on record as “failed”.
Regarding “AIAELTGQRLREGDGPDGPADDGAGAQADLEHSLLVAAEKKDEGPYRMEHFRWGSPPKDKRYGGFMTSEKSQTPLVTLFKNAIIKNAYKKGE”, the protein production result was “failed”.
